B1: methylesterase/deamidase CheB from E. coli, low-activity, unphosphorylated form (enzyme, UniProt P07330 1-349, looked up)
chain: MSKIRVLSVDDSALMRQIMTEIINSHSDMEMVATAPDPLVARDLIKKFNPDVLTLDVEMPRMDGLDFLEKLMRLRPMPVVMVSSLTGKGSEVTLRALELGAIDFVTKPQLGIREGMLAYNEMIAEKVRTAAKASLAAHKPLSAPTTLKAGPLLSSEKLIAIGASTGGTEAIRHVLQPLPLSSPALLITQHMPPGFTRSFADRLNKLCQIGVKEAEDGERVLPGHAYIAPGDRHMELSRSGANYQIKIHDGPAVNRHRPSVDVLFHSVAKQAGRNAVGVILTGMGNDGAAGMLAMRQAGAWTLAQNEASCVVFGMPREAINMGGVCEVVDLSQVSQQMLAKISAGQAIRI
notes: CheB methylesterase/deamidase of E. coli, unphosphorylated, from plasmid pCW/cheB; measured with 2 mM DTT in the buffer; also called low-activity CheB; unmodified CheB; source: E. coli K-12 RP3098 with pCW/cheB, purified
B2: CheBC, catalytic domain of E. coli CheB lacking the regulatory domain and linker (domain or fragment)
chain: LSSEKLIAIGASTGGTEAIRHVLQPLPLSSPALLITQHMPPGFTRSFADRLNKLCQIGVKEAEDGERVLPGHAYIAPGDRHMELSRSGANYQIKIHDGPAVNRHRPSVDVLFHSVAKQAGRNAVGVILTGMGNDGAAGMLAMRQAGAWTLAQNEASCVVFGMPREAINMGGVCEVVDLSQVSQQMLAKISAGQAIRI

Experiments:
[1] = test system: Tar4EΔpp (chemoreceptor Tar, all-glutamyl, lacking NWETF); assay: CheB binding to Tar4EΔpp (pentapeptide-lacking) in Nanodiscs (biolayer interferometry); set-up: species or system E. coli; conditions: Tar 4E, pentapeptide no, BLI, pH 7.5, 2% BSA (plus 2 mM DTT for CheB and CheBc); for dwell time (1/koff): calculated from mean koff; for dwell time (1/koff) / KA (equilibrium association constant): propagated SD; for KA (equilibrium association constant): calculated from mean kon and koff; for kon (apparent association rate constant): mean ± SD of at least three independent experiments
Procedure: We determined the kinetics of association and dissociation of methylesterase/deamidase CheB in its low- and high-activity form with the E. coli aspartate chemoreceptor Tar using biolayer interferometry ([22], [23]) and isolated receptor homodimers in Nanodiscs ([24], [25]). Apparent rate constants of association and dissociation were derived from global fits of time courses for binding and release (see Fig. S1 in the supplemental material). Equilibrium dissociation constants were calculated from those apparent rate constants.
E. coli CheB and Salmonella CheB D56C/C207S/C309S and D56C/S164A/C207S/C309S were purified as described previously ([11]). CheBC (amino acids [aa] 153 to 349) was purified using the procedure of West et al. ([40]), except that Bio-Gel P-60, was not used. CheB D56C/C207S/C309S and CheB D56C/S164A/C207S/C309S were modified to create a disulfide-linked phosphoryl group on D56C following the procedure described in reference but using a 10-fold molar excess of DTNB [Ellman’s reagent, 5,5′-disulfanediylbis(2-nitrobenzoic acid)] rather than 90-fold and a 50-fold molar excess Na3SPO3 rather than 1,000-fold. The extent of modification was 59% for the former and 60% for the latter determined by reversed phase chromatography essentially as described previously ([26]) and confirmed by Nano LC-Nanospray QTQF mass spectroscopy. Membrane scaffold protein MSP1D1(-) ([41]) was purified as described previously ([25]). Tar4E L378C, Tar4Q L378C, Tar4EΔpp-6H L378C, and Tar4QΔpp-6H L378C were purified, incorporated into Nanodiscs at approximately one receptor dimer per disc, and biotinylated at L378C as described previously ([23], [42]). […] These activities were confirmed for representative samples used in our analyses. Receptor-containing Nanodiscs were dialyzed into 50 mM Tris-HCl (pH 7.5), 0.5 mM EDTA, 10% (wt/vol) glycerol, and 100 mM NaCl. Prior to a binding experiment, the solution was changed using a spin desalting column to 50 mM Tris-HCl, 10% (wt/vol) glycerol, 5 mM MgCl2, and 50 mM KCl (pH 7.5).
Kinetics of CheB association and dissociation with Nanodisc-embedded Tar biotinylated at L378C were determined using biolayer interferometry ([22], [23]) as measured by a BLItz instrument (ForteBio, Menlo Park, CA, USA) and described in reference. Representative time course experiments are shown in Fig. S1 in the supplemental material. Measurements for CheB-P* and CheB-P*-I were in 50 mM Tris-HCl (pH 7.5), 10% (wt/vol) glycerol, 5 mM MgCl2, 50 mM KCl, and 2% (wt/vol) bovine serum albumin (BSA). Measurements for CheB and CheBc were in the same solution plus 2 mM dithiothreitol (DTT).
Using BLItz software, response curves were fit globally to a 1:1 binding model to yield apparent association rate constants (kon) and dissociation rate constants (koff). For analysis of complex patterns of binding, in which more than one binding reaction appeared to be contributing, for instance one that appeared saturable and another nonspecific, nonsaturable, the data were exported and fit globally to nonlinear exponential functions using OriginPro 2017. The best fits to the data were obtained using the following functions. R=R0 + Req[a(e^−kd1 t) + b(e^−kd2 t)] was used to globally fit dissociation time courses, with R being the response (in nanometers), a + b = 1, with a and b being the portion of the signal (in nanometers) for fast and slow phases, respectively, kd1 and kd2 being the respective dissociation rate constants, and Req being the response at equilibrium. Association data were fit using apparent dissociation rate constants kd1 and kd2, relevant CheB concentrations (C) and the equation R=R0 + Req[a(1 − e^−(ka1 C+kd1)t) + b(1 − e^−(ka2 C+kd2)t)]

[2] = biological target: T1, Tar4Q L378C, E. coli aspartate chemoreceptor Tar, all-glutaminyl form with carboxyl-terminal pentapeptide, … (E. coli, UniProt P07017 1-553, L378C, biotinylated at L378C); assay: SPR
[3] = biological target: T2, Tar4QΔpp-6H L378C, E. coli Tar lacking the carboxyl-terminal pentapeptide, all-glutaminyl form, homodimer in … (E. coli, UniProt P07017 1-553, L378C, biotinylated at L378C); assay: SPR
[4] = biological target: T3, Tar4EΔpp-6H L378C, E. coli Tar lacking the carboxyl-terminal pentapeptide, all-glutamyl form, homodimer in … (E. coli, UniProt P07017 1-553, L378C, biotinylated at L378C); assay: SPR
[5] = biological target: T4, Tar4E L378C, E. coli aspartate chemoreceptor Tar, all-glutamyl form with carboxyl-terminal pentapeptide, … (E. coli, UniProt P07017 1-553, L378C, biotinylated at L378C); assay: SPR
[6] = biological target: T1, Tar4Q L378C, E. coli aspartate …; assay: SPR; remark: listed apart in the source
[7] = biological target: T2, Tar4QΔpp-6H L378C, E. coli Tar lacking …; assay: SPR; remark: listed apart in the source
[8] = biological target: T3, Tar4EΔpp-6H L378C, E. coli Tar lacking …; assay: SPR; remark: listed apart in the source
[9] = biological target: T4, Tar4E L378C, E. coli aspartate …; assay: SPR; remark: listed apart in the source

Row | Molecule | dwell time (1/koff) [1] | KA (equilibrium association constant) [1] | kon (apparent association rate constant) [1] | Ka [2] | Ka [3] | Ka [4] | Ka [5] | koff [6] | koff [7] | koff [8] | koff [9]
1 | B1 | 1.6 ± 0.2 s | 1.2 ± 0.1 10^3 M^-1 | 750 ± 8 M⁻¹ s⁻¹ | 6300 M⁻¹ | 1700 M⁻¹ | 1200 M⁻¹ | 4400 M⁻¹ | 0.46 s⁻¹ | 0.65 s⁻¹ | 0.64 s⁻¹ | 0.36 s⁻¹
2 | B2 | 2.3 ± 0.2 s | 1.5 ± 0.3 10^3 M^-1 | 670 ± 140 M⁻¹ s⁻¹ | 700 M⁻¹ | 800 M⁻¹ | 1500 M⁻¹ | 1700 M⁻¹ | 0.48 s⁻¹ | 0.58 s⁻¹ | 0.44 s⁻¹ | 0.48 s⁻¹

From publication PMC8609364, “A Selective Tether Recruits Activated Response Regulator CheB to Its Chemoreceptor Substrate” (mBio, 2021)
